± gives the uncertainty stated by the source.
Assay: abundance fitness (aPCA) (normalised: wild type 0, dead -1); higher = more abundant; growth selection in yeast, the domain comes from the species named
Conditions: Homo sapiens

Substance | abundance fitness
SAFB-like transcription modulator V47N, Q9NWH9 | -0.079 ± 0.045
SAFB-like transcription modulator V47P, Q9NWH9 | -0.585 ± 0.056
SAFB-like transcription modulator V47Q, Q9NWH9 | 0.019 ± 0.047
SAFB-like transcription modulator V47R, Q9NWH9 | -0.207 ± 0.043
SAFB-like transcription modulator V47S, Q9NWH9 | -0.152 ± 0.048
SAFB-like transcription modulator V47T, Q9NWH9 | 0.089 ± 0.064
SAFB-like transcription modulator V47Y, Q9NWH9 | -0.525 ± 0.044

— the Human Domainome abundance scans (Beltran et al. 2025)
